Measured values: the DeepSol protein solubility set

Experiment: soluble on expression in E. coli; label from the status in PepcDB or PDB records

Sequence	soluble on expression in E. coli
LKRYIAGLACAATAVLSAPALASTAHAQAADPISALKSQFSSGRGVNFVDTTKTQGPQGNMVLAKRTGALQFGPSGISASDQTAQLRFKASDFEDLTEGEEDEDFSKFFRGLAKPERVVRIKNTTYVSGGVMGEFMPADKTWVRFPDGLLGFTGAMSQFVNVAEPATLKALLAHATKHGGTYSGKITFGELNKVSPWFRASLGAPTAKTAKIVVSWKLFLGSDRLAKRLVTTYSTAGSAESTVTVDTRYTGWGSKVTVKAPPADQVADLKDLEEGAETATSIPLLGN	soluble
LKSLKDVTDHKKVNANDEDYKYIDMWKRLYQGHYAEWHNLNYEHNGNPVNRRQLSMNLPKVTAKYMSKLLFNEKVKINIDDKAAEEFVLNVLKTNGFTKNMERYIEYGEAMGGFVIKVYHDGNKNVKISFATADCMYPLSNDSENVDECVIANSFHKNNKYYKLLEWNEWKGKEEKVYTITTELYQSDNPDELGGEVSLKLLFNDIEPVVPLPPLTRPTFIYIKPNIANNKNLTSPLGISIYANALDTLKTLDLMFDSYYQEFKLGKKKVLVPSSFVKTAVNLDGSTTQYFDSTDEAFFLYQGDQDADGKSVKDISVEIRSTEFIESINAMLRIYAMQVGLSAGTFTFDENGLKTATEVVSEKSETYQTKNSHSQLIEQGIKEMIVSILEVGKFIEAYSGDVVELDTITVDFDDSIAQDEDTTINRYTTAKNQGMIPLKIALQRAWNITDAEAEEWKEEIEKDARAEIPG	not soluble
LLQLNIQNFAIVRSLDIDWQSGMTTITGETGAGKSIAIDALGLCLGDRATTNVVRPNCKKADLAATFEIKKNKMARAWLKQHELVSEHDSECILRRVISAEGRSKSYINGSQVPLVQLKEIGQLLINIHGQHDHQLIVKANQQCRLLDNYANHTPLLSAVKHYAQQWNKLNKELEMLQQSKQQREAEQQLIQYQVTELDEFSLQ	not soluble
LLRMHESLARRQLAEVERLDLVRQVRELIGELLVDGGATLEQVAARLGMPARRLRERLAMAGVRFNDLVTDYRCRLAKE	not soluble
LLSPPIALKPLDSSAKWRIIYWNPNGCDKTCLKQLNMLGRVRLSFGRKLYQVDEWLLLSNKDSLIAEELKPILKEQDIHVAALSLTEMSKLSTLYPEAKIFIANPDNYLILSYQPGCNPGDIYKDLKLLLNTTE	not soluble
LPAGLYFVGTPIGSARDITLRALDVLASAEVIAAEDTRSLRHLLDIHGVPLDGRRVLAYHDHSGAGAQARLLEALAEGKSVAYASEAGMPLIADPGFELSRAAAEAGHMVTCAPGPS	not soluble
LPRELRPLMKKPLGILYRGKGRDTIEKFAGELSSPTKLISVGDVTTFHLLEAGIIPDICIVDDRTKRKPVSSDVSVRNRDKVYEEVSVDNPAGIITDELIRTLCEAFASEKLLRIFVRGEEDLATLPVILLAPPGSVVLYGQPDEGVVFVEVTEKKKEEIRALFEKLISK	not soluble
LQASVNLFPTISVAPSADTSSERSIYKARFLENVAAAETEKQVALAQGRAETLAGAMPNEAGGHPDARQLWDSPETAPAARTPQSPAPCVLLRAQRSLAPEPKEPLIPASPKAEPIWELPTRAPRLSIGDLDFSDLGEDEDQDMLNVESVEAGKDI	not soluble
LRGFIIGRFQPFHKGHLEVIKKIAEEVDEIIIGIGSAQKSHTLENPFTAGERILMITQSLKDYDLTYYPIPIKDIEFNSIWVSYVESLTPPFDIVYSGNPLVRVLFEERGYEVKRPEMFNRKEYSGTEIRRRMLNGEKWEHLVPKAVVDVIKEIKGVERLRKLAQTDK	soluble
LRVSDGIAGKMTVLALKNTDERLRADKSVSVGFVLAALMWPELERHWKSNLQQGLKPAPALSDAINTMRETVERGWGVPQRFSATMREIWMFQPQFENRKGARPHKLFAQARFRAAYDFLLLRAETGNADRALAEWWTAFQTASTEQRSEMTKNEAAARHEKNEGQAKKRRRRRRKPKPKVVGTDWE	not soluble
LSKDILQLVGGEENVQRVIHCMTRLRFNLHDNAKADRSQLEQLPGVMGTNISGEQFQIIIGNDVPKVYQAIVRHSNLSDEKSAGSSSQKKNVLSAVFDVISG	not soluble
LSKGTRDRKNIYVSPEEMARQQRFIDEIKELNYRKEVKTGKKKLYCLNTFGCQMNEHDSEKLAGMLAEMGYAETDNVNESDLVIYNTCCVRENAELKVYGHLGMLKPLKNQKPDLVIAVCGCMMQQPEVVEHIKKTYSHVDLIFGTHNLYKFPELLYSAMDSQTTVVDVWDCDGQIAENVAIERKDGVKAWVTVMYGCNNFCTYCIVPYVRGRERSRSMDDILEEVRMLGRQGFKEITLLGQNVNSYGKDIGDGTSFAELIREVNKIPGIERIRFTTSHPKDLSDDLIYAMRDCEKVCEHLHLPFQAGSTRILKLMNRKYTKEDYINLVAKIKENIPDIALTTDIIVGFPGETEEDFSDTLDILEKVRFDNAYTFLYSKRTGTPAAKMEDQVPEEVKKERFQRLLETQNRISKEINDTFLGKVVEVLVEGVSKTNDKIFTGRTRGNKVVNFEADASLIGKLVNVRINTVKTWSLEGSIVR	soluble
LTLRAGREQNIPMNLSDSWAARRPVTARVSAAEAVLADLRDAITSGELSVGERLPSEASLAARHGVSRSVIREALRSCHALGLTETKSGLGTFVVSDSIARDLDFGNYAANELVEARPHVEIPAAGWAAQRHTAEDLAALRGLVDQMRDEDDPLVWVSLDAQFHAFIARTSRNRVFESVIVDIREALTRQSETLNLVAGRQQKSNDEHDRIVEGIASGSYDKAARAMAEHLDAVRVALESVVGEAGPDRRQ	not soluble
MAAACICQPNLLEINVSDGPLDMIRKKRKIQQPQLRPPLRENKCQPHFSVRKVNQSYIISLHKEITCQLIAEIVKQKLSRIWEKVYIPSYELISDKDGNQIYVEQSVDENRLTSEIMEKLDPNNIDIEAIEILFDDYHLELSRLTNGIIISSANDHFYREFSFNNIIDDNFKICGTSMSADSFDKIYGVMWIEVPFNGNGLQNDSAVNRVSTSHNQIEELNDIEQEIRAFNISRSNQESIIKKEVSRRLNGR	not soluble
MAAAGARPVELGFAESAPAWRLRSEQFPSKVGGRPAWLGAAGLPGPQALACELCGRPLSFLLQVYAPLPGRPDAFHRCIFLFCCREQPCCAGLRVFRNQLPRKNDFYSYEPPSENPPPETGESVCLQLKSGAHLCRVCGCLGPKTCSRCHKAYYCSKEHQTLDWRLGHKQACAQPDHLDHIIPDHNFLFPEFEIVIETEDEIMPEVVEKEDYSEIIGSMGEALEEELDSMAKHESREDKIFQKFKTQIALEPEQILRYGRGIAPIWISGENIPQEKDIPDCPCGAKRILEFQVMPQLLNYLKADRLGKSIDWGILAVFTCAESCSLGTGYTEEFVWKQDVTDTP	soluble
MAAAKVALTKRADPAELRTIFLKYASIEKNGEFFMSPNDFVTRYLNIFGESQPNPKTVELLSGVVDQTKDGLISFQEFVAFESVLCAPDALFMVAFQLFDKAGKGEVTFEDVKQVFGQTTIHQHIPFNWDSEFVQLHFGKERKRHLTYAEFTQFLLEIQLEHAKQAFVQRDNARTGRVTAIDFRDIMVTIRPHVLTPFVEECLVAAAGGTTSHQVSFSYFNGFNSLLNNMELIRKIYSTLAGTRKDVEVTKEEFVLAAQKFGQVTPMEVDILFQLADLYEPRGRMTLADIERIAPLEEGTLPFNLAEAQRQKASGDSARPVLLQVAESAYRFGLGSVAGAVGATAVYPIDLVKTRMQNQRSTGSFVGELMYKNSFDCFKKVLRYEGFFGLYRGLLPQLLGVAPEKAIKLTVNDFVRDKFMHKDGSVPLAAEILAGGCAGGSQVIFTNPLEIVKIRLQVAGEITTGPRVSALSVVRDLGFFGIYKGAKACFLRDIPFSAIYFPCYAHVKASFANEDGQVSPGSLLLAGAIAGMPAASLVTPADVIKTRLQVAARAGQTTYSGVIDCFRKILREEGPKALWKGAGARVFRSSPQFGVTLLTYELLQRWFYIDFGGVKPMGSEPVPKSRINLPAPNPDHVGGYKLAVATFAGIENKFGLYLPLFKPSVSTSKAIGGGP	not soluble
MAACGNPSAAVKFERLPTFAEPTHYNVRLSPCLNQFSFDGHATIDVTIKEATDVLKVHAQSLLIQSVSLITQPGDASKSLETSYDDKLNILTIKLPTTMQPQKVQLDFKFVGELNDKMRGFYRSQYKDKNGTEKFLASTQFESTYARYAFPCFDEPIYKATFDVTLEVENHLTALSNMNVISETPTADGKRKAVTFATSPKMSSYLVAFAVGELEYISAQTKSGVEMRVYTVPGKKEQGQYSLDLSVKCIDWYNEWFDIKYPLPKCDLIAIPDFSMGAMENWGLVTYREIALLVDPGVTSTRQKSRVALVVAHELAHLWFGNLVTMKWWTDLWLKEGFASFMEYMFVGANCPEFKIWLHFLNDELASGMGLDALRNSHPIEVEIDNPNELDEIYDSITYAKSNSVNRMLCYYLSEPVFQKGLRLYLKRFQYSNAVTQDLWTALSEASGQNVNELMSGWTQQMGFPVLKVSQRQDGNNRILTVEQRRFISDGGEDPKNSQWQVPITVAVGSSPSDVKARFLLKEKQQEFTIEGVAPGEWVKLNSGTTGFYRVEYSDEMLTAMLPDIASRRMPVLDRFGLINDLSALLNTGRVSIAQFVQVAASSAKEDEYVVWGAIDEGMSKLLACAREMSEDTLKSAKQLVVKMFEQTGAELGFAEQAGEDSQKMMLRSLVQARLARAGHQPTIDKFTQMFNDFLEKGTPIHPDIRLATFGVVARYGGKEGFDKLMNLRETTTFQEIERQTMVAMSQTPEESLLAQLFEYGFEKNKVRPQDQLYLFLGTGATHMGQQYAWKYFCEHIKEFLDKYGGANSSLFQRCLKFAGESFGNEKRAVEFQDFFCNCNVLSDTDRQTLARPIGQTVEAIRLNARLLESNRQIIENLLKQSNV	not soluble
MAAETKVQVSDPEAEFLNSKQETGYEWELFKENVRPLKRGRNVGILNHALKSHSDHQLRKNLIEKRRNLIEAIDEYEGDDPLSPWIECIKWVQEAFPPGGECSGLLVIYEQCVRKFWHSERYKDDLRYLKVWLEYAEHCADAEVIYKFLEVNEIGKTHAVYYIAYALHIEFKNKVKTANEIFNLGISRDAKPVEKLNDAYKKFMVRTMRRSNTADEEPKENNDLPSRSFGTLLSRGDNNARRQALGSSNPQAKKLKPNQSSKTPFAIYADAVSDTTSGNQPESDKSRPEFGSWLMLGGRAERNKENNSLPRKWASFKVPQKPIVRTVAAASASTFEVFVDEEECTEEEEEKKKNDETISSSSNVLPLNGGREIKKETELLRQNPLRHFPPNSFLR	not soluble
MAAKNAFYAQSGGVTAVINASAAGVIEAARKQSGKIGRIYAGRNGIIGALTEDLIDTGQESDAAISALRYTPSGAFGSCRYKLKSLEQNRREYERLIEVFKAHDIGYFFYNGGGDSADTCLKVSQLSGTLGYPIQAIHVPKTVDNDLPITDCCPGFGSVAKYIAVSTLEASFDVASMSATSTKVFVLEVMGRHAGWIAAAGGLASSPEREIPVVILFPEISFDKQKFLAKVDSCVKKFGYCSVVVSEGVKGDDGKFLSDQGVRDAFGHAQLGGVAPVVASMVKEGLGLKYHWGVADYLQRAARHIASKTDVEQAYAMGQAAVEFAVQGHNSVMPTIERISARPYQWKVGMAQLSQVANVEKMMPENFITEDGFGITDLCREYLAPLIEGEDYPPYKDGLPDYVRLKNVAVPKKLSGFTLLEHHHHHH	not soluble
MAALRYAGLDDTDSEDELPPGWEERTTKDGWVYYANHTEEKTQWEHPKTGKRKRVAGDLPYGWEQETDENGQVFFVDHINKRTTYLDPRLAFTVDDNPTKPTTRQRYDGSTTAMEILQGRDFTGKVVLVTGANSGIGFETAKSFALHGAHVILACRNLSRASEAVSRILEEWHKAKVEAMTLDLAVLRSVQHFAEAFKAKNVSLHVLVCNAGTFALPWGLTKDGLETTFQVNHLGHFYLVQLLQDVLCRSSPARVIVVSSESHRFTDINDSSGKLDLSRLSPPRSDYWAMLAYNRSKLCNILFSNELHRRLSPRGVTSNAVHPGNMMYSAIHRNSWVYKLLFTLARPFTKSMQQGAATTVYCAVAPELEGLGGMYFNNCCRCLPSEEAQSEETARALWELSERLIQDRLGSPSS	soluble
